The test system of data set [1] is HeLa Kyoto. The experiment in a line: melting temperature (median over replicates), in situ; higher = more thermally stable.
Data set [2] concerns HeLa Kyoto. Briefly: thermal stability score vs G1/S (z-score of summed log2 fold changes over temperatures); higher = more thermally stable than in G1/S.
Data set [3] has as its system HeLa Kyoto. Briefly: solubility in G1/S (NP-40 vs SDS abundance) (log2 ratio); higher = more soluble. The conditions noted are these: cell cycle stage: G1/S.
The test system of data set [4] is HeLa Kyoto. Briefly: solubility change mitosis vs G1/S (difference of NP-40 vs SDS log2 ratios) (log2 ratio difference); higher = more soluble in mitosis.
Where [5] appears, read: cell cycle stage: early G1 (4.5 h after nocodazole release).
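Throughout, for melting temperature (median over replicates), in situ: HeLa Kyoto cells synchronized by double thymidine or nocodazole block, proteins quantified by TMT10plex mass spectrometry, three independent biological replicates.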
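Throughout, for solubility change mitosis vs G1/S (difference of NP-40 vs SDS log2 ratios): synchronized HeLa Kyoto cells (double thymidine block for G1/S, nocodazole release for mitosis), protein amounts in NP-40 versus SDS lysates quantified by mass spectrometry, three biological replicates.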
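Throughout, for solubility in G1/S (NP-40 vs SDS abundance): HeLa Kyoto cells arrested at G1/S by double thymidine block, proteins quantified by TMT10plex mass spectrometry in mild NP-40 versus SDS extracts, three biological replicates.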
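Throughout, for thermal stability score vs G1/S (z-score of summed log2 fold changes over temperatures): synchronized HeLa Kyoto cells, proteins quantified by TMT10plex mass spectrometry, three biological replicates, mitosis taken 0.5 h after nocodazole release, G1/S directly after double thymidine block.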

For the sequence “MFRRKLTALDYHNPAGFNCKDETEFRNFIVWLEDQKIRHYKIEDRGNLRNIHSSDWPKFFEKYLRDVNCPFKIQDRQEAIDWLLGLAVRLEYGDNAEKYKDLVPDNSKTADNATKNAEPLINLDVNNPDFKAGVMALANLLQIQRHDDYLVMLKAIRILVQERLTQDAVAKANQTKEGLPVALDKHILGFDTGDAVLNEAAQILRLLHIEELRELQTKINEAIVAVQAIIADPKTDHRLGKVGR [C14ORF166]”, the melting temperature stood at 50.1 °C in data set [1] (cell cycle stage: G1/S) and 51.3 °C in data set [1] (cell cycle stage: mitosis). For the same sequence, the thermal stability score was -1.08 in data set [2] (setting [5]) and -0.0878 in data set [2] (cell cycle stage: mitosis). Also, the “solubility in G1/S (log2)” value in data set [3] worked out at 0.0935. In data set [4], the “solubility change mitosis (log2)” value was 0.329.
In the case of “MFRYESLEDCPLDEDEDAFQGLGEEDEEIDQFNDDTFGSGAVDDDWQEAHERLAELEEKLPVAVNEQTGNGERDEMDLLGDHEENLAERLSKMVIENELEDPAIMRAVQTRPVLQPQPGSLNSSIWDGSEVLRRIRGPLLAQEMPTVSVLEYALPQRPPQGPEDDRDLSERALPRRSTSPIIGSPPVRAVPIGTPPKQMAVPSFTQQILCPKPVHVRPPMPPRYPAPYGERMSPNQLCSVPNSSLLGHPFPPSVPPVLSPLQRAQLLGGAQLQPGRMSPSQFARVPGFVGSPLAAMNPKLLQGRVGQMLPPAPGFRAFFSAPPSATPPPQQHPPGPGPHLQNLRSQAPMFRPDTTHLHPQHRRLLHQRQQQNRSQHRNLNGAGDRGSHRSSHQDHLRKDPYANLMLQREKDWVSKIQMMQLQSTDPYLDDFYYQNYFEKLEKLSAAEEIQGDGPKKERTKLITPQVAKLEHAYKPVQFEGSLGKLTVSSVNNPRKMIDAVVTSRSEDDETKEKQVRDKRRKTLVIIEKTYSLLLDVEDYERRYLLSLEEERPALMDDRKHKICSMYDNLRGKLPGQERPSDDHFVQIMCIRKGKRMVARILPFLSTEQAADILMTTARNLPFLIKKDAQDEVLPCLLSPFSLLLYHLPSVSITSLLRQLMNLPQSAATPALSNPHLTAVLQNKFGLSLLLILLSRGEDLQSSDPATESTQNNQWTEVMFMATRELLRIPQAALAKPISIPTNLVSLFSRYVDRQKLNLLETKLQLVQGIR [PATL1]”, the figures for the melting temperature in data set [1] (cell cycle stage: G1/S) and in data set [1] (cell cycle stage: mitosis) were 49.2 °C and 48.5 °C, respectively. For the same sequence, the thermal stability score in data set [2] (setting [5]) was -0.863; in data set [2] (cell cycle stage: mitosis) it was 0.327. Besides, the “solubility in G1/S (log2)” value in data set [3] was 0.255. The “solubility change mitosis (log2)” value in data set [4] is -0.0674.
For the sequence “MFSFEGDFKTRPKVSLGGASRKEEKASLLHRTQEERRKREEERRRLKNAIIIQSFIRGYRDRKQQYSIQRSAFDRCATLSQSGGAFPIANGPNLTLLVRQLLFFYKQNEDSKRLIWLYQNLIKHSSLFVKQLDGSERLTCLFQIKRLMSLCCRLLQNCNDDSLNVALPMRMLEVFSSENTYLPVLQDASYVVSVIEQILHYMIHNGYYRSLYLLINSKLPSSIEYSDLSRVPIAKILLENVLKPLHFTYNSCPEGARQQVFTAFTEEFLAAPFTDQIFHFIIPALADAQTVFPYEPFLNALLLIESRCSRKSGGAPWLFYFVLTVGENYLGALSEEGLLVYLRVLQTFLSQLPVSPASASCHDSASDSEEESEEADKPSSPEDGRLSVSYITEECLKKLDTKQQTNTLLNLVWRDSASEEVFTTMASVCHTLMVQHRMMVPKVRLLYSLAFNARFLRHLWFLISSMSTRMITGSMVPLLQVISRGSPMSFEDSSRIIPLFYLFSSLFSHSLISIHDNEFFGDPIEVVGQRQSSMMPFTLEELIMLSRCLRDACLGIIKLAYPETKPEVREEYITAFQSIGVTTSSEMQQCIQMEQKRWIQLFKVITNLVKMLKSRDTRRNFCPPNHWLSEQEDIKADKVTQLYVPASRHVWRFRRMGRIGPLQSTLDVGLESPPLSVSEERQLAVLTELPFVVPFEERVKIFQRLIYADKQEVQGDGPFLDGINVTIRRNYIYEDAYDKLSPENEPDLKKRIRVHLLNAHGLDEAGIDGGGIFREFLNELLKSGFNPNQGFFKTTNEGLLYPNPAAQMLVGDSFARHYYFLGRMLGKALYENMLVELPFAGFFLSKLLGTSADVDIHHLASLDPEVYKNLLFLKSYEDDVEELGLNFTVVNNDLGEAQVVELKFGGKDIPVTSANRIAYIHLVADYRLNRQIRQHCLAFRQGLANVVSLEWLRMFDQQEIQVLISGAQVPISLEDLKSFTNYSGGYSADHPVIKVFWRVVEGFTDEEKRKLLKFVTSCSRPPLLGFKELYPAFCIHNGGSDLERLPTASTCMNLLKLPEFYDETLLRSKLLYAIECAAGFELS [UBE3C]”, the figures for the melting temperature in data set [1] (cell cycle stage: G1/S) and in data set [1] (cell cycle stage: mitosis) were 50.3 °C and 50.1 °C, respectively. The thermal stability score in data set [2] (setting [5]) amounted to 0.499; in data set [2] (cell cycle stage: mitosis), 0.996. In data set [3], the “solubility in G1/S (log2)” value is -0.181. The “solubility change mitosis (log2)” value in data set [4] was -0.263.
Turning to “MFSWVSKDARRKKEPELFQTVAEGLRQLYAQKLLPLEEHYRFHEFHSPALEDADFDNKPMVLLVGQYSTGKTTFIRHLIEQDFPGMRIGPEPTTDSFIAVMHGPTEGVVPGNALVVDPRRPFRKLNAFGNAFLNRFMCAQLPNPVLDSISIIDTPGILSGEKQRISRGYDFAAVLEWFAERVDRIILLFDAHKLDISDEFSEVIKALKNHEDKIRVVLNKADQIETQQLMRVYGALMWSLGKIINTPEVVRVYIGSFWSHPLLIPDNRKLFEAEEQDLFKDIQSLPRNAALRKLNDLIKRARLAKVHAYIISSLKKEMPNVFGKESKKKELVNNLGEIYQKIEREHQISPGDFPSLRKMQELLQTQDFSKFQALKPKLLDTVDDMLANDIARLMVMVRQEESLMPSQVVKGGAFDGTMNGPFGHGYGEGAGEGIDDVEWVVGKDKPTYDEIFYTLSPVNGKITGANAKKEMVKSKLPNTVLGKIWKLADVDKDGLLDDEEFALANHLIKVKLEGHELPADLPPHLVPPSKRRHE [EHD1]”, the melting temperature in data set [1] (cell cycle stage: G1/S) worked out at 50.6 °C; in data set [1] (cell cycle stage: mitosis), 50.5 °C. Also, the values for the thermal stability score in data set [2] (setting [5]) and in data set [2] (cell cycle stage: mitosis) were 2.25 and 2.22, respectively. The “solubility in G1/S (log2)” value in data set [3] was 0.171. In data set [4], the “solubility change mitosis (log2)” value was -0.0648.
Take “MFVELNNLLNTTPDRAEQGKLTLLCDAKTDGSFLVHHFLSFYLKANCKVCFVALIQSFSHYSIVGQKLGVSLTMARERGQLVFLEGLKSAVDVVFQAQKEPHPLQFLREANAGNLKPLFEFVREALKPVDSGEARWTYPVLLVDDLSVLLSLGMGAVAVLDFIHYCRATVCWELKGNMVVLVHDSGDAEDEENDILLNGLSHQSHLILRAEGLATGFCRDVHGQLRILWRRPSQPAVHRDQSFTYQYKIQDKSVSFFAKGMSPAVL [ELP6]”: the figures for the melting temperature in data set [1] (cell cycle stage: G1/S) and in data set [1] (cell cycle stage: mitosis) were 55.1 °C and 54.4 °C, respectively. The thermal stability score was -0.431 in data set [2] (setting [5]) and -1.3 in data set [2] (cell cycle stage: mitosis). Also, in data set [3], the “solubility in G1/S (log2)” value was -0.082. For the same sequence, in data set [4], the “solubility change mitosis (log2)” value is -0.245.
“MFVPRSLKIKRNANDDGKSCVAKIIKPDPEDLQLDKSRDVPVDAVATEAATIDRHISESCPFPSPGGQLAEVHSVSPEQGAKDSHPSEEPVKSFSKTQRWAEPGEPICVVCGRYGEYICDKTDEDVCSLECKAKHLLQVKEKEEKSKLSNPQKADSEPESPLNASYVYKEHPFILNLQEDQIENLKQQLGILVQGQEVTRPIIDFEHCSLPEVLNHNLKKSGYEVPTPIQMQMIPVGLLGRDILASADTGSGKTAAFLLPVIMRALFESKTPSALILTPTRELAIQIERQAKELMSGLPRMKTVLLVGGLPLPPQLYRLQQHVKVIIATPGRLLDIIKQSSVELCGVKIVVVDEADTMLKMGFQQQVLDILENIPNDCQTILVSATIPTSIEQLASQLLHNPVRIITGEKNLPCANVRQIILWVEDPAKKKKLFEILNDKKLFKPPVLVFVDCKLGADLLSEAVQKITGLKSISIHSEKSQIERKNILKGLLEGDYEVVVSTGVLGRGLDLISVRLVVNFDMPSSMDEYVHQIGRVGRLGQNGTAITFINNNSKRLFWDIAKRVKPTGSILPPQLLNSPYLHDQKRKEQQKDKQTQNDLVTGANLMDIIRKHDKSNSQK [DDX59]”: the melting temperature amounted to 50.8 °C in data set [1] (cell cycle stage: G1/S) and 50.3 °C in data set [1] (cell cycle stage: mitosis). The thermal stability score is 1.04 in data set [2] (setting [5]) and 1.76 in data set [2] (cell cycle stage: mitosis). The “solubility in G1/S (log2)” value in data set [3] is 0.419. Moreover, the “solubility change mitosis (log2)” value in data set [4] is -0.18.

These data come from the supplement of paper PMC5998384.
